This is an account of results in patent US20210095018A1 (BIOLEGEND, published 2021).

This assay addresses T1, human Tetraspanin 33 (TSPAN33) (human, UniProt Q86UF1 1-283).
T1 sequence: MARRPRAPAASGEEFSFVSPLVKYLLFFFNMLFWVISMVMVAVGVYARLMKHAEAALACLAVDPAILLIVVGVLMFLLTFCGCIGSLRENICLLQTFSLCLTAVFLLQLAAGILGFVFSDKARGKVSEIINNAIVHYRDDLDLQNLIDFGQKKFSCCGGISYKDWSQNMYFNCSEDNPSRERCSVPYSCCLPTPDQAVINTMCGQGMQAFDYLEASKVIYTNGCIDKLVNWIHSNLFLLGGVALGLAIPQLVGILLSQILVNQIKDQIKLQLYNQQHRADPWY
Nature of the assay: flow cytometry on human PBMCs activated with CD40L and IL-4; detection with anti-mouse IgG PE. The procedure: Human peripheral blood mononuclear cells (PBMCs) were isolated in aseptic conditions through a gradient of Ficoll-Paque PLUS (GE Healthcare) according manufacturer instructions. The PBMCs were counted and adjusted in complete RPMI-1640 (10% fetal bovine serum, […] Penicillin, and 1 mg/ml Streptomycin) to a cell density of 1×10⁶ cells/mL. Cells were activated by adding CD40L (TNFSF5; 1 μg/mL) and recombinant human IL-4 (100 U/mL) to the culture. The cells were incubated overnight at 37° C. with 5% CO₂.
The next day the cells were washed with Biolegend's Cell Staining Buffer, and 1×10⁶ cells were stained for 15 minutes in the dark with anti-human CD20-APC and purified anti-human TSPAN33 or purified mouse IgG2b, k isotype control, in a volume of 100 μL. Cells were washed twice with 3 mL of Cell Staining Buffer and then stained for 15 minutes in the dark with anti-mouse IgG PE, in a volume of 100 μL. Then the cells were washed twice with 3 mL of Cell Staining Buffer and analyzed on a flow cytometer. 7-AAD Viability Staining Solution was used to exclude dead cells from analysis.
Background: A flow cytometer gives signals particle by particle.

B1: AB1, mouse anti-TSPAN33 monoclonal antibody (antibody, V domains shown)
VH: EVKLVESGGGLVQPGGSLSLSCAASGFTFTDYYMTWVRQPPGKALEWLVFIRNKANGYTTEYSASVKGRFTISRDNSQSILYLQMNALRAEDSATYYCARYLQTGNFDYWGQGTTLTVSS
VL: EIQMIQTTSSLTASLGDRVTISCRASQDISNFLNWYQQKPDGTIKLLIYFTSRLHSGVPSRFSGSGSGTDYSLTISNLEQEDIATYFCQQGYTVPPTFGGGTKLEIK
notes: Murine monoclonal antibody from a hybridoma; also called AB (clone) Number 1
Regarding B1, the binding result was “binds”.
